Laboratory results taken from paper PMC4742118, “The ON:OFF switch, σ1R-HINT1 protein, controls GPCR-NMDA receptor cross-regulation: Implications in neurological disorders” (Oncotarget, 2015).

B1: recombinant HINT1 protein (natural protein, mouse, UniProt P70349 1-126, looked up)
chain: MADEIAKAQVAQPGGDTIFGKIIRKEIPAKIIFEDDRCLAFHDISPQAPTHFLVIPKKHISQISVADDDDESLLGHLMIVGKKCAADLGLKRGYRMVVNEGADGGQSVYHIHLHVLGGRQMNWPPG
notes: HINT1, coding region of NM_008248, amplified from mouse brain RNA; also called PKCI/HINT1; source: E. coli BL21 (KRX), purified (GSTrap FF; when necessary cleaved with ProTEV and electroeluted)

Columns and labels:
Conditions in all cases: both partners purified
GST-σ1R = target: T1, GST-σ1R (murine, UniProt O55242 1-223); test: pull-down; HINT1 protomer 200 nM with GST fusion protein 100 nM in 50 mM Tris-HCl pH 7.4, 2.5 mM CaCl2, 0.2% CHAPS, 30 min RT; captured on glutathione Sepharose 4B; Western blot
T1 construct: murine full-length (1-223) σ1R, GenBank AF004927, cloned downstream of GST and a TEV protease site; also called GST-tagged σ1 receptor; source: E. coli BL21 (KRX), purified (GSTrap FF); not shown: GST, N-terminal, kept
T1 sequence (O55242 whole entry, the tested form may be a part): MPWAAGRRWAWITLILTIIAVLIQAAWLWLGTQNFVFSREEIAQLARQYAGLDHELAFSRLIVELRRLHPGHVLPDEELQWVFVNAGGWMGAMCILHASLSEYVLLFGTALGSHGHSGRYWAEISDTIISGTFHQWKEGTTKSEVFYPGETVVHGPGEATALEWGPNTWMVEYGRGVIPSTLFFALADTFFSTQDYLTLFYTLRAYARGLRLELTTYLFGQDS

recombinant σ1R = target: T2, recombinant σ1R (murine, UniProt O55242 1-223); test: pull-down; bait (GST-NR1 C0-C1-C2 or GST-MOR) covalently attached to NHS-activated Sepharose; σ1R 100 nM in 50 mM Tris-HCl pH 7.4, 0.2% CHAPS, 30 min RT; 0 mM CaCl2; Western blot
T2 construct: murine full-length (1-223) σ1R, GenBank AF004927; Used as prey; also called sigma 1 receptor; source: E. coli BL21 (KRX), purified (GSTrap FF; when necessary cleaved with ProTEV and electroeluted)
T2 sequence (O55242 whole entry): as the sequence (O55242 whole entry, the tested form may be a part) above

[1] = target: B1; test: pull-down; displacement assay: HINT1 200 nM preincubated with agarose-NR1 or agarose-MOR in 50 mM Tris-HCl pH 7.5, 2.5 mM CaCl2, 0.2% CHAPS at RT; free HINT1 removed; σ1R added (100 nM, 300 nM or 1 uM on NR1; 300 nM on MOR); Western blot of bound HINT1 and σ1R

Binder: B1
- binding result (GST-σ1R): binds

B2: GST-MOR (domain or fragment, mus musculus, UniProt P42866 286-398, looked up)
chain: VAVFIVCWTPIHIYVIIKALITIPETTFQTVSWHFCIALGYTNSCLNPVLYAFLDENFKRCFREFCIPTSSTIEQQNSARIRQNTREHPSTANTVDRTNHQLENLEAETAPLP
notes: C-terminal region of mus musculus MOR1 (AB047546), residues 286-398; the methods speak of MOR Ct; also called GST-tagged MOR; MOR Ct; source: E. coli BL21 (KRX), purified (GSTrap FF); not shown: GST, N-terminal, kept
- binding result (recombinant σ1R): binds
- binding result [1]: binds
